The values that follow come from patent US20210253718A1, “FRIZZLED5 PROTEIN-BINDING AGENTS” (Modmab Therapeutics Corporation, priority 2016, published 2021).

One test has as its target T1, FZD10 CRD (Homo sapiens, UniProt Q9ULW2).
T1 construct: 30-156; GPI anchor signal (C); expressed in transfected cells; host or cells: CHO cells, lentiviral pLenti-puro
T1 sequence (Q9ULW2 30-156): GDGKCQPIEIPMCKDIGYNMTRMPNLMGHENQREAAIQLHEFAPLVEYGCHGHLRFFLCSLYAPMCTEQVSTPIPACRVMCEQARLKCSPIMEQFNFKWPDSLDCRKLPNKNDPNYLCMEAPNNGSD
In words: Immunofluorescence of anti-FZD5 Fab binding to CHO cells overexpressing Frizzled CRD. Further details: key: −: no binding; +: very weak binder; ++: weak binder; +++: good binder; ++++: very good binder. The gist of the method:
(§1)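 CHO lines each stably expressing one human Frizzled CRD as a myc-tagged, GPI-anchored cell-surface cassette (FZD_CRD-MYC-GPI, lentiviral pLenti-puro) were probed with anti-FZD5 Fabs. Binding was read by immunofluorescence, alongside flow cytometry, across the 10-member panel.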

In another test the target is T2, FZD3 CRD (Homo sapiens, UniProt Q9NPG1).
T2 construct: CRD of FZD1, FZD2, FZD3, FZD4, FZD5, FZD6, FZD7, FZD8, FZD9 or FZD10; GPI anchor signal (C); expressed in transfected cells; host or cells: CHO cells, lentiviral pLenti-puro
T2 sequence (Q9NPG1 23-136 limits assumed): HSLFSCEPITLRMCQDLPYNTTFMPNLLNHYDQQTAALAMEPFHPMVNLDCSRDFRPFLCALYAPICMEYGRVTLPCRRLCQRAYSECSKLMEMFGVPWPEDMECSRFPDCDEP
The test is described as above. Details: key: −: no binding; +: very weak binder; ++: weak binder; +++: good binder; ++++: very good binder. The gist of the method: as §1

In another test the target is T3, FZD4 CRD (Homo sapiens, UniProt Q9ULV1).
T3 construct: E42-V167; GPI anchor signal (C); expressed in transfected cells; host or cells: CHO cells, lentiviral pLenti-puro
T3 sequence (Q9ULV1 42-167): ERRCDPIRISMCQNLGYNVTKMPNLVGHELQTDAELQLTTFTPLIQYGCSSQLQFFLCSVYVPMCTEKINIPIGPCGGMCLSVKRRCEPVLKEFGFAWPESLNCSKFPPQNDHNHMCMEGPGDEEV
Described as above. Details: key: −: no binding; +: very weak binder; ++: weak binder; +++: good binder; ++++: very good binder. The gist of the method: as §1

A further test has as its target T4, FZD5 CRD (Homo sapiens, UniProt Q13467).
T4 construct: K29-T156; GPI anchor signal (C); expressed in transfected cells; host or cells: CHO cells, lentiviral pLenti-puro
T4 sequence (Q13467 29-156): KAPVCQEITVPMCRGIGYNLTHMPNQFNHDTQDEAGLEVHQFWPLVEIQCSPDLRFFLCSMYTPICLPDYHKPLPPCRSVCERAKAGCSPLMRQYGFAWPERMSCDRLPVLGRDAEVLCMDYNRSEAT
The description is as above. Further details: key: −: no binding; +: very weak binder; ++: weak binder; +++: good binder; ++++: very good binder. The essentials:
as §1

For another test, the target named is T5, FZD6 CRD (Homo sapiens, UniProt O60353).
T5 construct: S20-P146; GPI anchor signal (C); expressed in transfected cells; host or cells: CHO cells, lentiviral pLenti-puro
T5 sequence (O60353 20-146): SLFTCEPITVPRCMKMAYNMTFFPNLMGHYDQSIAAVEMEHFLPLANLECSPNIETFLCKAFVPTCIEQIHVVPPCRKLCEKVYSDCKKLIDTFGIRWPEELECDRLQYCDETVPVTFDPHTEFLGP
Described as above. Further details: key: −: no binding; +: very weak binder; ++: weak binder; +++: good binder; ++++: very good binder. The gist of the method:
as §1

The target in another test is T6, FZD8 CRD (Homo sapiens, UniProt Q9H461).
T6 construct: K31-D155; GPI anchor signal (C); expressed in transfected cells; host or cells: CHO cells, lentiviral pLenti-puro
T6 sequence (Q9H461 31-155): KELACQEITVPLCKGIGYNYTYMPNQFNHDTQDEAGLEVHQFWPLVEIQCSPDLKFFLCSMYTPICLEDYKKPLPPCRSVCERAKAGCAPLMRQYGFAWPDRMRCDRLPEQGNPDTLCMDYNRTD
Described as above. Details: key: −: no binding; +: very weak binder; ++: weak binder; +++: good binder; ++++: very good binder. The gist of the method: as §1

The next test deals with ASPC-1 cells. In words: Effect of anti-FZD5 Fabs on proliferation of pancreatic cancer cell lines (percent growth inhibition). In kind it is cell-based, human. Conditions: Fab 2 μg/ml.
In another test the test system is RWP1 cells. The test is described as above. It is filed as cell-based, human. Particulars: Fab 2 μg/ml.

B1: Fab-2934: anti-FZD5 Fab with antibody variable region Fv-2934; CDR SEQ ID NOs: 35, 36, 73, 110, 149, 155 (antibody, V domains shown)
VH: EVQLVESGGGLVQPGGSLRLSCAASGFNISYSYMHWVRQAPGKGLEWVASIYSSSGSTSYADSVKGRFTISADTSKNTAYLQMNSLRAEDTAVYYCARGAIDYWGQGTLVTVSS
VL: DIQMTQSPSSLSASVGDRVTITCRASQSVSSAVAWYQQKPGKAPKLLIYSASSLYSGVPSRFSGSRSGTDFTLTISSLQPEDFATYYCQQWYHYGLITFGQGTKVEIK
Consider B1, for which the “Immunofluorescence binding, Frizzled CRD overexpressed on CHO cells: FZD10” value (shortened to “Immunofluorescence binding … FZD10”) with FZD10 CRD is listed as “−”. Moreover, in the test with FZD3 CRD, the “Immunofluorescence binding, Frizzled CRD overexpressed on CHO cells: FZD3” value (from here on “Immunofluorescence binding … FZD3”) was “−”. Besides, the “Immunofluorescence binding, Frizzled CRD overexpressed on CHO cells: FZD4” value (“Immunofluorescence binding … FZD4” below) with FZD4 CRD was “−”. In addition, the “Immunofluorescence binding, Frizzled CRD overexpressed on CHO cells: FZD5” value (shortened to “Immunofluorescence binding … FZD5”) with FZD5 CRD is “++++”. Also, the “Immunofluorescence binding, Frizzled CRD overexpressed on CHO cells: FZD6” value (“Immunofluorescence binding … FZD6” for short) with FZD6 CRD is reported as “−”. The “Immunofluorescence binding, Frizzled CRD overexpressed on CHO cells: FZD8” value (“Immunofluorescence binding … FZD8” below) with FZD8 CRD was “+”. Moreover, the “percent growth inhibition, ASPC-1 2 μg/ml” value in the test with ASPC-1 cells worked out at 26.80%. In the test with RWP1 cells, the “percent growth inhibition, RWP1 2 μg/ml” value is 7.90%.

B2: Fab-2935: anti-FZD5 Fab with antibody variable region Fv-2935; CDR SEQ ID NOs: 35, 36, 74, 111, 150, 178 (antibody, V domains shown)
VH: EVQLVESGGGLVQPGGSLRLSCAASGFNIYYYYIHWVRQAPGKGLEWVASIYPSSGSTSYADSVKGRFTISADTSKNTAYLQMNSLRAEDTAVYYCARAAFDYWGQGTLVTVSS
VL: DIQMTQSPSSLSASVGDRVTITCRASQSVSSAVAWYQQKPGKAPKLLIYSASSLYSGVPSRFSGSRSGTDFTLTISSLQPEDFATYYCQQWYGGYALITFGQGTKVEIK
Regarding B2, the “Immunofluorescence binding … FZD10” value with FZD10 CRD is given as “−”. In the test with FZD3 CRD, the “Immunofluorescence binding … FZD3” value was “−”. The “Immunofluorescence binding … FZD4” value in the test with FZD4 CRD is “−”. Besides, the “Immunofluorescence binding … FZD5” value with FZD5 CRD is listed as “++++”. For the same molecule, in the test with FZD6 CRD, the “Immunofluorescence binding … FZD6” value is recorded as “−”. Moreover, the “Immunofluorescence binding … FZD8” value with FZD8 CRD is listed as “+”. For the same molecule, the “percent growth inhibition, ASPC-1 2 μg/ml” value with ASPC-1 cells amounted to 4.75%. Also, the “percent growth inhibition, RWP1 2 μg/ml” value in the test on RWP1 cells is −14.51%.

B3: Fab-2926: anti-FZD5 Fab with antibody variable region Fv-2926; CDR SEQ ID NOs: 35, 36, 65, 103, 141, 173 (antibody, V domains shown)
VH: EVQLVESGGGLVQPGGSLRLSCAASGFNIYSSYMHWVRQAPGKGLEWVASIYPSSSSTSYADSVKGRFTISADTSKNTAYLQMNSLRAEDTAVYYCARGGLDYWGQGTLVTVSS
VL: DIQMTQSPSSLSASVGDRVTITCRASQSVSSAVAWYQQKPGKAPKLLIYSASSLYSGVPSRFSGSRSGTDFTLTISSLQPEDFATYYCQQWYHGGSLFTFGQGTKVEIK
For the molecule B3, the “Immunofluorescence binding … FZD10” value with FZD10 CRD is on record as “−”. In the test with FZD3 CRD, the “Immunofluorescence binding … FZD3” value is recorded as “−”. Also, the “Immunofluorescence binding … FZD4” value with FZD4 CRD is reported as “−”. In the test with FZD5 CRD, the “Immunofluorescence binding … FZD5” value was “++++”. The “Immunofluorescence binding … FZD6” value in the test with FZD6 CRD is recorded as “−”. Moreover, the “Immunofluorescence binding … FZD8” value in the test with FZD8 CRD is recorded as “+”. Besides, in the test with ASPC-1 cells, the “percent growth inhibition, ASPC-1 2 μg/ml” value turned out to be 17.27%. In addition, the “percent growth inhibition, RWP1 2 μg/ml” value in the test on RWP1 cells worked out at 37.95%.

B4: Fab-2936: anti-FZD5 Fab with antibody variable region Fv-2936; CDR SEQ ID NOs: 35, 36, 75, 112, 151, 179 (antibody, V domains shown)
VH: EVQLVESGGGLVQPGGSLRLSCAASGFNISYYYMHWVRQAPGKGLEWVASIYSSSGSTSYADSVKGRFTISADTSKNTAYLQMNSLRAEDTAVYYCARAAMDYWGQGTLVTVSS
VL: DIQMTQSPSSLSASVGDRVTITCRASQSVSSAVAWYQQKPGKAPKLLIYSASSLYSGVPSRFSGSRSGTDFTLTISSLQPEDFATYYCQQWYAASLITFGQGTKVEIK
On to B4, for which, in the test with FZD10 CRD, the “Immunofluorescence binding … FZD10” value is “−”. Further, the “Immunofluorescence binding … FZD3” value in the test with FZD3 CRD was “−”. In addition, in the test with FZD4 CRD, the “Immunofluorescence binding … FZD4” value is recorded as “−”. Further, the “Immunofluorescence binding … FZD5” value in the test with FZD5 CRD is recorded as “++++”. Moreover, the “Immunofluorescence binding … FZD6” value in the test with FZD6 CRD is “−”. In the test with FZD8 CRD, the “Immunofluorescence binding … FZD8” value is “+”. In the test on ASPC-1 cells, the “percent growth inhibition, ASPC-1 2 μg/ml” value was determined as 17.01%. The “percent growth inhibition, RWP1 2 μg/ml” value in the test with RWP1 cells was found to be 0.02%.

B5: Fab-2933: anti-FZD5 Fab with antibody variable region Fv-2933; CDR SEQ ID NOs: 35, 36, 72, 109, 148, 177 (antibody, V domains shown)
VH: EVQLVESGGGLVQPGGSLRLSCAASGFNLYSSYMHWVRQAPGKGLEWVASIYSSYGYTSYADSVKGRFTISADTSKNTAYLQMNSLRAEDTAVYYCARTVRGSKKPYFSGWAMDYWGQGTLVTVSS
VL: DIQMTQSPSSLSASVGDRVTITCRASQSVSSAVAWYQQKPGKAPKLLIYSASSLYSGVPSRFSGSRSGTDFTLTISSLQPEDFATYYCQQFWWYASWLFTFGQGTKVEIK
In the case of B5, the “Immunofluorescence binding … FZD10” value in the test with FZD10 CRD is reported as “−”. Besides, the “Immunofluorescence binding … FZD3” value in the test with FZD3 CRD was “−”. In addition, the “Immunofluorescence binding … FZD4” value in the test with FZD4 CRD was “+++”. Besides, the “Immunofluorescence binding … FZD5” value with FZD5 CRD is recorded as “++++”. The “Immunofluorescence binding … FZD6” value in the test with FZD6 CRD is recorded as “−”. The “Immunofluorescence binding … FZD8” value with FZD8 CRD is “+”. Further, the “percent growth inhibition, ASPC-1 2 μg/ml” value with ASPC-1 cells is reported as −1.03%. Besides, the “percent growth inhibition, RWP1 2 μg/ml” value with RWP1 cells is −21.16%.
